Laboratory results published in the RNAGym collection of RNA variant scans (doi:10.1021/acssynbio.7b00057).

B1: Pistol ribozyme (parent)
chain: GGGUCGUUGUUCCAUAAUCGCGUGGAUAUGGCACGCAAGUUUCUACCGGGCACCGUAAAUGUCCGACUGGAGCCGUUCGGGCGGCUAUAAACAGACCUCAGGCCCGAAGCGUGGCGGCACCUGCCGCCGGUGGUAAAAAAGAUCGGAAGAGCACACGUCU

Variants of: B1
Test: aptazyme ON/OFF ratio, guanine; higher = stronger switching; co-transcriptional cleavage with and without guanine

Question: Which “aptazyme ON/OFF ratio” value does the source give for GGGUCGUUAGCUAAUAAUCGCGUGGAUAUGGCACGCAAGUUUCUACCGGGCACCGUAAAUGUCCGACUGGAGCCGUUCGGGCGGCUAUAAACAGACCUCAGGCCCGAAGCGUGGCGGCACCUGCCGCCGGUGGUAAAAAAGAUCGGAAGAGCACACGUCU [G9A U10G U11C C12U C13A] here?
Answer: Its value is 1.26.

Question: For GGGUCGUUAGCUGAUAAUCGCGUGGAUAUGGCACGCAAGUUUCUACCGGGCACCGUAAAUGUCCGACUGGAGCCGUUCGGGCGGCUAUAAACAGACCUCAGGCCCGAAGCGUGGCGGCACCUGCCGCCGGUGGUAAAAAAGAUCGGAAGAGCACACGUCU [G9A U10G U11C C12U C13G], which “aptazyme ON/OFF ratio” value is on record?
Answer: The value was 1.22.

Question: Which “aptazyme ON/OFF ratio” value does the source give for GGGUCGUUAGGUAAUAAUCGCGUGGAUAUGGCACGCAAGUUUCUACCGGGCACCGUAAAUGUCCGACUGGAGCCGUUCGGGCGGCUAUAAACAGACCUCAGGCCCGAAGCGUGGCGGCACCUGCCGCCGGUGGUAAAAAAGAUCGGAAGAGCACACGUCU [G9A U10G U11G C12U C13A] here?
Answer: The value was 1.08.

Question: With GGGUCGUUAGGUGAUAAUCGCGUGGAUAUGGCACGCAAGUUUCUACCGGGCACCGUAAAUGUCCGACUGGAGCCGUUCGGGCGGCUAUAAACAGACCUCAGGCCCGAAGCGUGGCGGCACCUGCCGCCGGUGGUAAAAAAGAUCGGAAGAGCACACGUCU [G9A U10G U11G C12U C13G] as the variant, how does the “aptazyme ON/OFF ratio” value read?
Answer: The value was 1.19.

Question: With GGGUCGUUAGGUUAUAAUCGCGUGGAUAUGGCACGCAAGUUUCUACCGGGCACCGUAAAUGUCCGACUGGAGCCGUUCGGGCGGCUAUAAACAGACCUCAGGCCCGAAGCGUGGCGGCACCUGCCGCCGGUGGUAAAAAAGAUCGGAAGAGCACACGUCU [G9A U10G U11G C12U C13U] as the variant, how does the “aptazyme ON/OFF ratio” value read?
Answer: The value was 1.55.

Question: Which “aptazyme ON/OFF ratio” value does the source give for GGGUCGUUAGGGGAUAAUCGCGUGGAUAUGGCACGCAAGUUUCUACCGGGCACCGUAAAUGUCCGACUGGAGCCGUUCGGGCGGCUAUAAACAGACCUCAGGCCCGAAGCGUGGCGGCACCUGCCGCCGGUGGUAAAAAAGAUCGGAAGAGCACACGUCU [G9A U10G U11G C12G C13G] here?
Answer: Its value is 1.22.

Question: Which “aptazyme ON/OFF ratio” value does the source give for GGGUCGUUAGGGUAUAAUCGCGUGGAUAUGGCACGCAAGUUUCUACCGGGCACCGUAAAUGUCCGACUGGAGCCGUUCGGGCGGCUAUAAACAGACCUCAGGCCCGAAGCGUGGCGGCACCUGCCGCCGGUGGUAAAAAAGAUCGGAAGAGCACACGUCU [G9A U10G U11G C12G C13U] here?
Answer: The value was 1.15.

Question: For GGGUCGUUAGGGAAUAAUCGCGUGGAUAUGGCACGCAAGUUUCUACCGGGCACCGUAAAUGUCCGACUGGAGCCGUUCGGGCGGCUAUAAACAGACCUCAGGCCCGAAGCGUGGCGGCACCUGCCGCCGGUGGUAAAAAAGAUCGGAAGAGCACACGUCU [G9A U10G U11G C12G C13A], which “aptazyme ON/OFF ratio” value is on record?
Answer: Its value is 1.16.

Question: Which “aptazyme ON/OFF ratio” value does the source give for GGGUCGUUAGGUCAUAAUCGCGUGGAUAUGGCACGCAAGUUUCUACCGGGCACCGUAAAUGUCCGACUGGAGCCGUUCGGGCGGCUAUAAACAGACCUCAGGCCCGAAGCGUGGCGGCACCUGCCGCCGGUGGUAAAAAAGAUCGGAAGAGCACACGUCU [G9A U10G U11G C12U] here?
Answer: Its value is 1.48.

Question: For GGGUCGUUAGGGCAUAAUCGCGUGGAUAUGGCACGCAAGUUUCUACCGGGCACCGUAAAUGUCCGACUGGAGCCGUUCGGGCGGCUAUAAACAGACCUCAGGCCCGAAGCGUGGCGGCACCUGCCGCCGGUGGUAAAAAAGAUCGGAAGAGCACACGUCU [G9A U10G U11G C12G], which “aptazyme ON/OFF ratio” value is on record?
Answer: The value was 1.25.

Question: With GGGUCGUUAGGACAUAAUCGCGUGGAUAUGGCACGCAAGUUUCUACCGGGCACCGUAAAUGUCCGACUGGAGCCGUUCGGGCGGCUAUAAACAGACCUCAGGCCCGAAGCGUGGCGGCACCUGCCGCCGGUGGUAAAAAAGAUCGGAAGAGCACACGUCU [G9A U10G U11G C12A] as the variant, how does the “aptazyme ON/OFF ratio” value read?
Answer: Its value is 1.11.

Question: Which “aptazyme ON/OFF ratio” value does the source give for GGGUCGUUAUAAUAUAAUCGCGUGGAUAUGGCACGCAAGUUUCUACCGGGCACCGUAAAUGUCCGACUGGAGCCGUUCGGGCGGCUAUAAACAGACCUCAGGCCCGAAGCGUGGCGGCACCUGCCGCCGGUGGUAAAAAAGAUCGGAAGAGCACACGUCU [G9A U11A C12A C13U] here?
Answer: The value was 1.36.

Question: Which “aptazyme ON/OFF ratio” value does the source give for GGGUCGUUAUAAAAUAAUCGCGUGGAUAUGGCACGCAAGUUUCUACCGGGCACCGUAAAUGUCCGACUGGAGCCGUUCGGGCGGCUAUAAACAGACCUCAGGCCCGAAGCGUGGCGGCACCUGCCGCCGGUGGUAAAAAAGAUCGGAAGAGCACACGUCU [G9A U11A C12A C13A] here?
Answer: Its value is 1.33.

Question: With GGGUCGUUAUAAGAUAAUCGCGUGGAUAUGGCACGCAAGUUUCUACCGGGCACCGUAAAUGUCCGACUGGAGCCGUUCGGGCGGCUAUAAACAGACCUCAGGCCCGAAGCGUGGCGGCACCUGCCGCCGGUGGUAAAAAAGAUCGGAAGAGCACACGUCU [G9A U11A C12A C13G] as the variant, how does the “aptazyme ON/OFF ratio” value read?
Answer: The value was 1.29.

Question: With GGGUCGUUAUAUGAUAAUCGCGUGGAUAUGGCACGCAAGUUUCUACCGGGCACCGUAAAUGUCCGACUGGAGCCGUUCGGGCGGCUAUAAACAGACCUCAGGCCCGAAGCGUGGCGGCACCUGCCGCCGGUGGUAAAAAAGAUCGGAAGAGCACACGUCU [G9A U11A C12U C13G] as the variant, how does the “aptazyme ON/OFF ratio” value read?
Answer: The value was 1.33.

Question: Which “aptazyme ON/OFF ratio” value does the source give for GGGUCGUUAUAUUAUAAUCGCGUGGAUAUGGCACGCAAGUUUCUACCGGGCACCGUAAAUGUCCGACUGGAGCCGUUCGGGCGGCUAUAAACAGACCUCAGGCCCGAAGCGUGGCGGCACCUGCCGCCGGUGGUAAAAAAGAUCGGAAGAGCACACGUCU [G9A U11A C12U C13U] here?
Answer: Its value is 1.91.

Question: With GGGUCGUUAUAUAAUAAUCGCGUGGAUAUGGCACGCAAGUUUCUACCGGGCACCGUAAAUGUCCGACUGGAGCCGUUCGGGCGGCUAUAAACAGACCUCAGGCCCGAAGCGUGGCGGCACCUGCCGCCGGUGGUAAAAAAGAUCGGAAGAGCACACGUCU [G9A U11A C12U C13A] as the variant, how does the “aptazyme ON/OFF ratio” value read?
Answer: Its value is 1.37.

Question: For GGGUCGUUAGGCCAUAAUCGCGUGGAUAUGGCACGCAAGUUUCUACCGGGCACCGUAAAUGUCCGACUGGAGCCGUUCGGGCGGCUAUAAACAGACCUCAGGCCCGAAGCGUGGCGGCACCUGCCGCCGGUGGUAAAAAAGAUCGGAAGAGCACACGUCU [G9A U10G U11G], which “aptazyme ON/OFF ratio” value is on record?
Answer: The value was 1.11.
